According to publication PMC10786891, “Massively parallel profiling of RNA-targeting CRISPR-Cas13d”:
Numbering of substitutions follows the chain as printed. In names and notes the source's numbering stands.

T1: EsCas13d, nuclease-dead (Eubacterium siraeum, UniProt B0MS50, R295A;H300A;R849A;H854A)
T1 sequence: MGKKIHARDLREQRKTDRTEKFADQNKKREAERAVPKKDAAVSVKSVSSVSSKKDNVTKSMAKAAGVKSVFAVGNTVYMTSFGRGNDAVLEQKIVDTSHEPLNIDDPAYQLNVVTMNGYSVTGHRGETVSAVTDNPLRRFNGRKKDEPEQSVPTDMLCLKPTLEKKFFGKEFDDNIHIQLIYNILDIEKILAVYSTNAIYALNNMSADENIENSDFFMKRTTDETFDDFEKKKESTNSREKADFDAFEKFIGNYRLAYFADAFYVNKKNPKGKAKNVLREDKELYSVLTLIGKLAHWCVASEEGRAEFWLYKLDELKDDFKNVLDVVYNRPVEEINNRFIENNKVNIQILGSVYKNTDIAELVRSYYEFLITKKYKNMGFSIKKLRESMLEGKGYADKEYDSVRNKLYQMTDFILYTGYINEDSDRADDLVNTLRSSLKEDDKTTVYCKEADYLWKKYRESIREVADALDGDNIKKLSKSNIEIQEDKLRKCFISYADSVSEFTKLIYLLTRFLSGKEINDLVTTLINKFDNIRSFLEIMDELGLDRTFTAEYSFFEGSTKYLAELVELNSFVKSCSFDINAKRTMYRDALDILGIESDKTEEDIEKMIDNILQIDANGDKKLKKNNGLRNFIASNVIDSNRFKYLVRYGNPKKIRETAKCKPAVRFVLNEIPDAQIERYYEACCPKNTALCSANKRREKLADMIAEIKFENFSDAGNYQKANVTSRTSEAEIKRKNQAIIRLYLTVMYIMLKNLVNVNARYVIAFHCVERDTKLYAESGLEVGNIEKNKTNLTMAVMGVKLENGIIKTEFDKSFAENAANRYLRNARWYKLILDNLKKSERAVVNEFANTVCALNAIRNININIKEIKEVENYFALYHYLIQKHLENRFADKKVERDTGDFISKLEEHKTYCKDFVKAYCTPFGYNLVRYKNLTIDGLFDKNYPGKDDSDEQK

B1: target 1 insA 3' of 10,insG 3' of 1 (mixed)
RNA 1: CACCCGUGCAAAAAUGCAGGGGUCUAAAACUGAGCGGAUAACCUCUCUAUGG
RNA 2: GGGAAUGGAUCCACAUCUACGAAUUCGUACCAUAGAGAGGUUAAUCCGCUCAGCCGAGAUCGGAAGAGCACACGU
B2: target 1 A1C,U11A (mixed)
RNA 1: B1 RNA 1
RNA 2: GGGAAUGGAUCCACAUCUACGAAUUCGUACCAUAGAGAGGAUAUCCGCUCCCCGAGAUCGGAAGAGCACACGU
B3: target 1 A1G,U11A (mixed)
RNA 1: B1 RNA 1
RNA 2: B2 RNA 2 with C51G
B4: target 1 insA 3' of 10,insC 3' of 1 (mixed)
RNA 1: B1 RNA 1
RNA 2: B1 RNA 2 with G53C
B5: target 1 U3A,G5A (mixed)
RNA 1: B1 RNA 1
RNA 2: B2 RNA 2 with A41U, G47A, U49A, C51A
B6: target 1 insG 3' of 19,insG 3' of 19 (mixed)
RNA 1: B1 RNA 1
RNA 2: GGGAAUGGAUCCACAUCUACGAAUUCGUACCAUGGAGAGAGGUUAUCCGCUCACCGAGAUCGGAAGAGCACACGU
B7: target 1 A9C,U11A (mixed)
RNA 1: B1 RNA 1
RNA 2: B2 RNA 2 with A43C, C51A
B8: target 1 insU 3' of 13,insG 3' of 2 (mixed)
RNA 1: B1 RNA 1
RNA 2: B1 RNA 2 with G40U, U41G, A43U, A52G, G53A
B9: target 1 insG 3' of 21,insU 3' of 2 (mixed)
RNA 1: B1 RNA 1
RNA 2: GGGAAUGGAUCCACAUCUACGAAUUCGUACCGAUAGAGAGGUUAUCCGCUCUACCGAGAUCGGAAGAGCACACGU
B10: target 1 insC 3' of 22,insC 3' of 8 (mixed)
RNA 1: B1 RNA 1
RNA 2: B9 RNA 2 with G32C, G48C, C49G, U50C, C51U, U52C
B11: target 1 G12U,G13U (mixed)
RNA 1: B1 RNA 1
RNA 2: B2 RNA 2 with G39U, G40U, A41U, C51A
B12: target 1 A18U,C22U (mixed)
RNA 1: B1 RNA 1
RNA 2: B2 RNA 2 with C30U, A34U, A41U, C51A
B13: target 1 insG 3' of 21,insA 3' of 13 (mixed)
RNA 1: B1 RNA 1
RNA 2: GGGAAUGGAUCCACAUCUACGAAUUCGUACCGAUAGAGAGAGUUAUCCGCUCACCGAGAUCGGAAGAGCACACGU
B14: target 1 insC 3' of 19,insA 3' of 17 (mixed)
RNA 1: B1 RNA 1
RNA 2: B6 RNA 2 with G34C, G35A, A36G, G37A
B15: target 1 C7G,A9C (mixed)
RNA 1: B1 RNA 1
RNA 2: B2 RNA 2 with A41U, A43C, C45G, C51A
B16: target 1 insU 3' of 17,insC 3' of 3 (mixed)
RNA 1: B1 RNA 1
RNA 2: B9 RNA 2 with G32A, A33U, U34A, A35G, G36U, U52C
B17: target 1 insG 3' of 9,insG 3' of 7 (mixed)
RNA 1: B1 RNA 1
RNA 2: B1 RNA 2 with A44G, C47G, G48C, C49G, U50C, C51U, A52C, G53A
B18: target 1 U8A,C22G (mixed)
RNA 1: B1 RNA 1
RNA 2: B2 RNA 2 with C30G, A41U, U44A, C51A
B19: target 1 C4A,U8A (mixed)
RNA 1: B1 RNA 1
RNA 2: B2 RNA 2 with A41U, U44A, C48A, C51A
B20: target 1 insA 3' of 8,insG 3' of 3 (mixed)
RNA 1: B1 RNA 1
RNA 2: B1 RNA 2 with A44U, U45A, C51G, A52C, G53A
B21: target 1 insA 3' of 10,insC 3' of 10 (mixed)
RNA 1: B1 RNA 1
RNA 2: B6 RNA 2 with G34A, A40G, G41U, G42U, U43A, U44C
B22: target 1 U3G,U10C (mixed)
RNA 1: B1 RNA 1
RNA 2: B2 RNA 2 with A41U, U42C, U49G, C51A
B23: target 1 insA 3' of 13,insA 3' of 13 (mixed)
RNA 1: B1 RNA 1
RNA 2: B6 RNA 2 with G34A, G41A
B24: target 1 C7G,U8C (mixed)
RNA 1: B1 RNA 1
RNA 2: B2 RNA 2 with A41U, U44C, C45G, C51A
B25: target 1 insC 3' of 22,insA 3' of 22 (mixed)
RNA 1: B1 RNA 1
RNA 2: B6 RNA 2 with U33C, G34A, G35U
B26: target 1 insU 3' of 13,insC 3' of 9 (mixed)
RNA 1: B1 RNA 1
RNA 2: B6 RNA 2 with G34A, A40U, G42U, U44A, A45C
B27: target 1 insA 3' of 12,insA 3' of 5 (mixed)
RNA 1: B1 RNA 1
RNA 2: B1 RNA 2 with U41A, A43U, C49A, U50C, C51U, A52C, G53A
B28: target 1 G5U,G13A (mixed)
RNA 1: B1 RNA 1
RNA 2: B2 RNA 2 with G39A, A41U, G47U, C51A
B29: target 1 insA 3' of 10,insA 3' of 2 (mixed)
RNA 1: B1 RNA 1
RNA 2: B1 RNA 2 with G53A
B30: target 1 insG 3' of 7,insA 3' of 4 (mixed)
RNA 1: B1 RNA 1
RNA 2: B1 RNA 2 with A44U, U45C, C46G, U50A, C51U, A52C, G53A
B31: target 1 insC 3' of 15,insG 3' of 8 (mixed)
RNA 1: B1 RNA 1
RNA 2: B6 RNA 2 with G34A, A38C, G39A, A40G, G42U, U44A, A45U, U46G
B32: target 1 insU 3' of 14,insU 3' of 2 (mixed)
RNA 1: B1 RNA 1
RNA 2: B1 RNA 2 with G39U, U41G, A43U, A52U, G53A
B33: target 1 insC 3' of 22,insU 3' of 17 (mixed)
RNA 1: B1 RNA 1
RNA 2: B6 RNA 2 with A32C, U33A, G34U, G35A, A36G, G37U
B34: target 1 insG 3' of 16,insU 3' of 14 (mixed)
RNA 1: B1 RNA 1
RNA 2: B6 RNA 2 with G34A, A38G, G39A, A40U

molecular target: T1, EsCas13d, nuclease-dead; assay: crRNA (strand 1, pre-loaded); Mg2+; 40 mM Tris-HCl pH 7.5, 150 mM NaCl, 6 mM MgCl2, 1 mM DTT, 0.1% Tween-20, 0.2 mg/ml BSA; 25 C; 10 min per concentration, then washed; details: tags: His6-TwinStrep-SUMO cleaved; N-terminal SNAP kept (SNAP-Surface 488); label: 3' end held by stalled T7 RNA polymerase

Point of comparison: B14, Kd 49 ± 7 nM. Against it:
- B1 — 3.4-fold lower, 14.4 ± 1.2 nM
- B2 — within error, 44 ± 10 nM
- B3 — within 1.5-fold, 34 ± 4 nM
- B4 — 3.9-fold lower, 12.6 ± 0.6 nM
- B5 — within error, 53 ± 8 nM
- B6 — within error, 56 ± 15 nM
- B7 — within error, 59 ± 13 nM
- B8 — 2.3-fold lower, 21 ± 4 nM
- B9 — within 1.5-fold, 70 ± 9 nM
- B10 — 2.7-fold lower, 18 ± 1.8 nM
- B11 — 6.8-fold lower, 7.2 ± 0.5 nM
- B12 — 1.5-fold higher, 74 ± 10 nM
- B13 — within error, 44 ± 5 nM
- B15 — 5.3-fold lower, 9.26 ± 0.33 nM
- B16 — 1.7-fold lower, 29 ± 5 nM
- B17 — 4.6-fold lower, 10.7 ± 0.4 nM
- B18 — within error, 68 ± 13 nM
- B19 — 1.9-fold lower, 25.3 ± 2.1 nM
- B20 — 4.9-fold lower, 10 ± 0.7 nM
- B21 — 3.8-fold lower, 12.9 ± 1.3 nM
- B22 — 3.5-fold lower, 14 ± 0.6 nM
- B23 — 6.2-fold lower, 7.9 ± 0.4 nM
- B24 — 4.6-fold lower, 10.7 ± 0.4 nM
- B25 — 4.9-fold lower, 10 ± 0.9 nM
- B26 — 2.6-fold lower, 18.8 ± 2.4 nM
- B27 — 2.8-fold lower, 17.4 ± 1.6 nM
- B28 — 4.3-fold lower, 11.5 ± 0.5 nM
- B29 — 3.5-fold lower, 14 ± 0.8 nM
- B30 — 8.9-fold lower, 5.49 ± 0.24 nM
- B31 — 2.1-fold lower, 23.3 ± 2.2 nM
- B32 — within error, 57 ± 8 nM
- B33 — 1.9-fold lower, 25.2 ± 2.7 nM
- B34 — 1.9-fold lower, 25.4 ± 2.4 nM
